The target in test [1] is recombinant human carbonic anhydrase IX extracellular domain, dimer (Homo sapiens, UniProt Q16790). Kind of test: SPR.
For test [2], the target named is human carbonic anhydrase IX on cells and in tumour tissue (Homo sapiens, UniProt Q16790). Kind of test: plate-based cell binding assay.
Test [3] concerns the target recombinant human carbonic anhydrase IX extracellular domain, monomer (human, UniProt Q16790). Kind of test: SPR.

One may read the Kd as the free concentration of one partner at which half of the binding sites on the other are occupied at equilibrium, for simple one-to-one binding. For orientation: koff means the first-order rate constant of dissociation. What is called kon is the rate constant with which the complex forms. The term EC50 denotes the concentration giving half of the maximal effect. Low values mean greater potency, high ones weaker potency.

B1: c12H8, recombinant chimeric anti-hCAIX antibody (human IgG1) (antibody, V domains shown)
VH: QIQLVQSGPELKKPGETVKISCKASGYTFTNYGMNWVQQAPGKGLKWMGWINTYTGEPTYADDFKGRFAFSLETSASTAYLQINNLKNEDMATYFCARGGIATPTSYWGQGTTLTVSS
VL: not shown
Turning to B1, in test [1], the Kd was found to be 0.032 nM, the dissociation rate constant (koff) stood at 0.000115 s⁻¹ and the kon worked out at 3.58e+06 M⁻¹ s⁻¹. Besides, the EC50 in test [2] amounted to 0.221 nM. Further, in test [3], the Kd was found to be 34.5 nM, the koff was determined as 0.0524 s⁻¹ and the kon was 1.52e+06 M⁻¹ s⁻¹.

B2: m9B6, recombinant murine anti-hCAIX antibody (mouse IgG2a) (antibody, V domains shown)
VH: QVQLQQPGAELVKPGASVKLSCKASGYIFTTKWINWVKQRPGQGLEWIGNIYPGSSNTYYNEKFKNKATLTVDKSSNTAHLQLSSLTSEDSAVYYCARGIANWGQGTPVTVSA
VL: DIVLTQSPSSLAVSLGQRATISCKASQSVDYDGNSYMNWFQQKPGQPPKLLIYEASSLESGIPARISGSGSGTDFTLNIHPVEEEDAATYYCQQSYEGPYTFGGGTKLEIK
The molecule B2 displayed an EC50 in test [2] of 21.8 nM.

B3: m4A2, recombinant murine anti-hCAIX antibody (mouse IgG2a) (antibody, V domains shown)
VH: EVKLEESGGGLVQPGRSMKLSCVASGFTFSYYWMDWVRQSPEKGLEWVAEIRLKSDNYATHYAESVKGRFTISRDDSKSSVYLQMNNLRAEDTGIYYCTRAPHYYGYFDYWGQGTTLTVSS
VL: QIVLTQSPAVMSAFPGEKVTMTCSASSSVGYMHWYQQKAGSSPRLLIYDTSNLSSGVPARCSGSGSGTSYSLTISRMEAEDAATYYCQQWRSYPPTFGGGTKLEIK
Regarding B3, in test [1], the dissociation constant (Kd) amounted to 0.189 nM, the koff turned out to be 7.68e-05 s⁻¹ and the kon stood at 406000 M⁻¹ s⁻¹. In test [2], the EC50 came to 1.16 nM. In test [3], the Kd came to 0.826 nM, the koff stood at 0.00019 s⁻¹ and the kon turned out to be 229000 M⁻¹ s⁻¹.

(Values after PMC8632296 (mAbs, 2021).)
